# In EP4653453A1:
# Molecular target: single antigen M1 peptide segment (monkeypox virus M1 protein) (Monkeypox virus isolate MPXV_USA_2022_MA001) (UniProt M1LBP0)
# Assay: SPR
# UniProt M1LBP0, sequence (M1LBP0 2-181 limits assumed): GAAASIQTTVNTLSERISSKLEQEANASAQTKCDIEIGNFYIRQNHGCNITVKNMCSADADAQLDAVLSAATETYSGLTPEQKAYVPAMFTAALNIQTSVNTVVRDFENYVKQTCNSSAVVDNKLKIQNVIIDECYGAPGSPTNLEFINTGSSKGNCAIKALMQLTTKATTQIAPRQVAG
substance,measurement,value
neutralizing antibody 7D11,Kd,3.3 nM
